The test system of the data set is CasDinG WT (Pseudomonas aeruginosa strain 83 (extrachromosomal plasmid)). Description: fluorescence anisotropy. The conditions noted are these: 100 mM Tris pH 8.0, 1 mM TCEP, 5 mM MgCl2, +/- 1 mM AMP-PNP, 10 nM FAM-ssDNA, CasDinG 0-2.5 uM, room temperature.

“TCGTCACCAGTACAAACTACAACGCCTGTAGCATTCCACA [40 nt ssDNA (oligo 7)]” gave a dissociation constant Kd of 26 nM. The Kd (no nucleotide, 5 mM Mg2+) stood at 25 nM.

Values taken from article PMC10450177.
